Drawing on PMC3174958, this text covers stoichiometry N for 1 substance.

This assay has as its target EPO-hyFc (human). In words: Western blotting; purified EPO-hyFc blotted with anti-EPO and anti-human IgG antibodies; gel conditions not told. (In western blotting, separated proteins are transferred to a membrane and probed.)

What is called stoichiometry N is the number of molecules, sites or subunits per partner or assembly. The substance EPO-hyFc (Fc fusion) yielded a stoichiometry N of 2.
